Experimental data: US8703459B2, “Catalytic domains of beta(1,4)-galactosyltransferase I having altered metal ion specificity” (The United States of America, as represented by the …, priority 2003, dated 2014)
Like-named read-outs stand apart in the source and are kept apart here. Marks after values point to notes of the source that are not given here. Each block holds one molecule with its values, some of them ahead of it.

Legend:
β4Gal-T1 = target: T1, β4Gal-T1 (Bos taurus, UniProt P08037); details: read-out: Km value of the acceptor; cited from earlier work
T1 sequence (P08037 1-402): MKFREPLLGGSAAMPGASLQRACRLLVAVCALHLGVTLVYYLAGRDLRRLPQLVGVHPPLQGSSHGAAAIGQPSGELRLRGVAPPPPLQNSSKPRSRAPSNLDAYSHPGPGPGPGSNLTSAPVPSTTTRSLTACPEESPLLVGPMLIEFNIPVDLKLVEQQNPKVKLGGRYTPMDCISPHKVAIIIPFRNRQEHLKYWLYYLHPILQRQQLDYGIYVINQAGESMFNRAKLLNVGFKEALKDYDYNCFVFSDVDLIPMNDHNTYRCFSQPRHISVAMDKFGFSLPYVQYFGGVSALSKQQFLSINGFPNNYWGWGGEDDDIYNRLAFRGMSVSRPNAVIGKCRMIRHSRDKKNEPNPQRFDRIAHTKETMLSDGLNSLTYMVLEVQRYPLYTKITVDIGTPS

M344H-Gal-T1 = target: T2, M344H-Gal-T1 (Bos taurus, UniProt P08037, C342T/M344H); experiment: Acceptor substrate inhibition of M344H-Gal-T1 catalytic activity; assay type: biochemical, bovine; details: in the presence of Mn^2+ (5 mM in FIG. 7c)
T2 construct: codes for residues 130 to 402 of bovine Gal-T1; made in house; host or cells: E. coli BL21(DE3) pLysS (pET23a derivative pEGT-d129)
T2 sequence (P08037 130-402 C342T/M344H): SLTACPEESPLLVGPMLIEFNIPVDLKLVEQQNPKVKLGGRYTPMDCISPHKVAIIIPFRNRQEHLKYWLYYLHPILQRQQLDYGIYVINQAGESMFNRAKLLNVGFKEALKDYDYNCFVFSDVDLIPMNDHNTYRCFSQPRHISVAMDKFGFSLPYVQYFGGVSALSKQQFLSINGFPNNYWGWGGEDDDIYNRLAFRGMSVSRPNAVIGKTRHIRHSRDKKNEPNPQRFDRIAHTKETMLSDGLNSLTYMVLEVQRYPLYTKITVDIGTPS
Protocol: (§1) FIG. 7 depicts the effect of GlcNAc concentration on Gal-T activity of the M344H-Gal-T1 mutant (a) and wild-type enzyme, C342T-Gal-T1 (b), at different fixed concentrations of Mn^2+: (a) (●) 6 μM, (O) 20 μM, (▾) 0.5 mM, (open triangle) 1.5 mM, and (▪) 5 mM and (b) (●) 6 μM, (open triangle) 80 μM, (▪) 0.5 mM, (▴) 1.5 mM, and (A) 5 mM. The activity of the mutant (a) is inhibited above 2-5 mM GlcNAc at any concentrations of Mn^2+, whereas the activity of the wild type (b) is inhibited at 25-30 mM GlcNAc and above 0.5 mM Mn^2+. (c) Effect of either GlcNAc, chitobiose, or β-benzyl-GlcNAc concentration on Gal-T activity of the mutant M344H-Gal-T1 in the presence of 5 mM Mn^2+. Arrows indicate the inhibition concentration for the respective curves. It is known that the disaccharide chitobiose binds strongly to the Gal-T1 compared to the monosaccharide GlcNAc. The higher the affinity of the acceptor substrate, the lower the required inhibition concentrations.
(§2) The inhibition of the M344H-Gal-T1 mutant with higher concentrations of the acceptor is independent of the concentration of Mn^2+ used in the assay (FIGS. 7A-C), while in the wild type, low concentrations of metal have no effect on acceptor inhibition (FIGS. 7A-C). […]

[1] = Two-substrate kinetic analysis of galactose transfer; assay type: biochemical, bovine; details: with Mn^2+
Description: The true Km of the donor (KA) and of the acceptor (KB), the dissociation constant of the donor, Kia, and kcat, were obtained using two-substrate analyses and the primary plots of at least five concentrations of donor (UDP-Gal) and five concentrations of acceptor, and the corresponding secondary plots of the intercepts and slopes. Initial rate conditions were linear with respect to time. A suitable range of donor and acceptor concentrations was chosen, which allowed accurate Michaelis-Menten constants to be derived. The data were also analyzed for a general two-substrate system using the following equations (Herbert, Initial Rate Enzymatic Kinetics, Springer-Verlag, New York (1975)) with the software EnzFitter, a Biosoft non-linear curve fitting program for Windows:
[formula] Here ν is the initial velocity and the rate equation for a sequential symmetrical, initial velocity pattern associated with equation 1, an ordered or random equilibrium mechanism in which substrate A dissociates well from the ECS complex with a dissociation constant of Kia. Equation 2 is for an asymmetric initial velocity pattern for a double-displacement or “ping-pong” mechanism. The kinetic parameters KA, KB, Kia, and Vmax were obtained from the fitted curves using the above rate equations. The graphical method and EnzFitter program gave very similar kinetic parameters.
This is quite similar to that of the wild-type enzyme (FIG. 2B) (Takase and Ebner, Curr. Top. Cell Regul., 24:51 (1984); Boeggeman and Qasba, Glycobiology, 12:395 (2002)). […] Although the catalytic efficiency with respect to donor and acceptor, compared to the wild-type enzyme with Mn^2+, has decreased by an order of about 13 and 6, respectively, the turnover number of the mutant, kcat, is reduced by only 60%. The lesser effect on kcat could be the result of Mg^2+ participating more efficiently in the formation of the transition state complex during the transfer reaction by the mutant or minor differences in the coordination geometry of the Mg^2+ in the mutant compared to that of Mn^2+ ion in the wild-type enzyme. The crystal structure of the M344H-Gal-T1 in complex with UDP-Gal in the presence of either Mn^2+ or Mg^2+ was then determined and compared to the structure with the wild-type UDP-Gal.metal complex. Crystal structure analysis of the M344E-Gal-T1 mutant in the presence of UDP-Gal and Mn^2+ was conducted to further understand the effect of the M344E mutation on the metal-ion binding site.

[2] = Effect of the acceptor concentration on Gal-T activity of the enzyme; assay type: biochemical, bovine; details: in the presence of Mn^2+
Protocol: as §1, §2

[3] = Metal ion activation curve, metal binding constants for Mn^2+; assay type: biochemical, bovine; details: with Mn^2+
Description: The activation curve of M344E-Gal-T1, using Mn^2+, is strikingly different from that of the wild-type enzyme (FIGS. 1A and 1B). In contrast to the wild type enzyme, the velocity curve obtained with the Mn^2+ concentration for the M344E-Gal-T1 mutant is not sigmoidal. On the other hand, the same curve for the M344H-Gal-T1 mutant in the presence of the Mg^2+ is sigmoidal (FIG. 1C). The observation that activation of the wild type enzyme by metal ions is sigmoidal has been interpreted as involving two metal binding sites in the enzyme: one with high affinity (Kd1), which is associated with low velocity, and a second site with low affinity (Kd2), which is associated with high velocity (Powell and Brew, J. Biol. Chem., 251:3645 (1976); Boeggeman and Qasba, Glycobiology, 12:395 (2002)). […] The values of the dissociation constant (Kd) for Mn^2+ of the mutant are quite different from that of the wild type (Table IV).
The enzyme activation data at various concentrations of Mg^2+ were fitted to an equation describing metal binding to a high affinity site (K1) to generate an enzyme form with a low kcat (V1) and to a second, lower affinity site (K2) to generate a form with a higher kcat (V2) (Boeggeman and Qasba, Glycobiology, 12:395 (2002)): […]

[4] = β4Gal-T enzyme assay, specific activity in the presence of various metal ions; assay type: biochemical, bovine
Protocol: Protein concentrations were measured using the Bio-Rad Protein Assay kit, based on the method of Bradford and further verified on SDS-PAGE gels using standard protein concentration markers. An in vitro assay procedure for Gal-T1 has been reported previously (Ramakrishnan et al., J. Mol. Biol., 310:205 (2001)). The activities were measured using UDP-Gal as sugar nucleotide donor, and GlcNAc as the acceptor sugar. For the specific activity measurements, a 100 μL incubation mixture containing 25 mM GlcNAc, 5 mM MnCl2 or MgCl2, 20 mM Tris-HCl pH 8.0, 500 μM UDP-Gal, 500 ng M344H-Gal-T1 or 30 ng of C342T-Gal-T1 and 0.5 μCi ^3H-UDP-Gal was used for each Gal-T reaction. The incubation was carried out at 30° C. for 15 minutes. The reaction was terminated by adding of 200 μl cold water, and the mixture was passed through a 0.5 mL bed volume column of AG 1-X8 […] resin (Bio-Rad) to remove any unreacted ^3H-UDP-Gal. The column was washed successively with 300, 400 and 500 μl of cold water, and the column flow-through was diluted with Biosafe scintillation fluid; radioactivity was measured with a Beckman counter. A reaction without the acceptor sugar was used as a control. Only 0.1 mM concentration of ZnCl2 or CoCl2 was used whenever Zn^2+ or Co^2+ was used during the enzyme assay.

[5] = 5 mM metal ion, 500 μM UDP-Gal, 25 mM GlcNAc

Molecule: CC(=O)N[C@H]1C(O)O[C@H](CO)[C@@H](O)[C@@H]1O (stereo partly drawn) [GlcNAc, N-acetylglucosamine]
Km (β4Gal-T1): 5 mM

Molecule: CC(=O)N[C@H]1[C@H](O[C@H]2[C@H](O)[C@@H](NC(C)=O)C(O)O[C@@H]2CO)O[C@H](CO)[C@@H](O)[C@@H]1O (stereo partly drawn) [chitobiose, βGlcNAc1-4GlcNAc]
inhibition of the catalytic activity of the M344H-Gal-T1 mutant by the acceptor (M344H-Gal-T1): at very low concentrations much more strongly than GlcNAc does | Km (β4Gal-T1): 1 mM

Molecule: CC(=O)N[C@H]1[C@H](OCc2ccccc2)O[C@H](CO)[C@@H](O)[C@@H]1O [β-benzyl-GlcNAc]
inhibition of the catalytic activity of the M344H-Gal-T1 mutant by the acceptor (M344H-Gal-T1): at very low concentrations much more strongly than GlcNAc does

GlcNAc concentrations at which catalytic activity is inhibited [2]: 20 to 25 mM | GlcNAc concentrations at which catalytic activity is inhibited ([2]; listed as C342T-Gal-T1): 25 to 30 mM | Kd ([3]; read-out: metal ion Kd1): 30 µM | Kd ([3]; read-out: metal ion Kd2): 400 µM | activation of the enzyme by Mg^2+ ([4]; Mg^2+): does not activate
B1: wild-type β4Gal-T1: residues 130 to 402 of bovine Gal-T1 with Cysteine to Threonine exchange at 342 (C342T), used as wild-type enzyme (protein, UniProt P08037 130-402, looked up, variant C342T)
chain: SLTACPEESPLLVGPMLIEFNIPVDLKLVEQQNPKVKLGGRYTPMDCISPHKVAIIIPFRNRQEHLKYWLYYLHPILQRQQLDYGIYVINQAGESMFNRAKLLNVGFKEALKDYDYNCFVFSDVDLIPMNDHNTYRCFSQPRHISVAMDKFGFSLPYVQYFGGVSALSKQQFLSINGFPNNYWGWGGEDDDIYNRLAFRGMSVSRPNAVIGKTRMIRHSRDKKNEPNPQRFDRIAHTKETMLSDGLNSLTYMVLEVQRYPLYTKITVDIGTPS
modifications: catalytic domain
notes: residues 130 to 402 of bovine Gal-T1 with Cysteine to Threonine exchange at 342 (C342T), used as wild-type enzyme
GlcNAc KB (true Km of the acceptor) [1]: 10 mM | Kcat [1]: 3.6 s⁻¹ | Kcat/KA [1]: 0.04 s⁻¹ µM⁻¹ | Kia (dissociation constant of the donor) [1]: 0 | UDP-Gal KA (true Km of the donor) [1]: 95(6) μM | UDP-Gal Vmax [1]: 6.4(4) pmol min^−1 ng^−1 | Catalytic Activity in the Presence of Various Metal Ions: Co ([4]; 0.1 mM Co^2+, 500 μM UDP-Gal, 25 mM GlcNAc): 0.41^b picomoles per minute per nanogram | Catalytic Activity in the Presence of Various Metal Ions: Zn ([4]; 0.1 mM Zn^2+, 500 μM UDP-Gal, 25 mM GlcNAc): 1.42 picomoles per minute per nanogram | Catalytic Activity in the Presence of Various Metal Ions: Ca [4, 5]: 0 picomoles per minute per nanogram | Catalytic Activity in the Presence of Various Metal Ions: Mg [4, 5]: 0 picomoles per minute per nanogram | Catalytic Activity in the Presence of Various Metal Ions: Mn [4, 5]: 5.35 picomoles per minute per nanogram | Catalytic Activity in the Presence of Various Metal Ions: Sr [4, 5]: 0 picomoles per minute per nanogram
